Measured values reported in article PMC4015189 (Cell, 2014).

Legend:
SEC = biological target: the molecule itself; assay: SEC
microtubules = assay: single-molecule TIRF microscopy
light scattering = biological target: the molecule itself; assay: light scattering

| binding lifetime (microtubules) | Binder | stoichiometry N (SEC) | stoichiometry N (light scattering) |
| --- | --- | --- | --- |
| 3.6 ± 0.2 s | NuMA-bonsai-tail II-GFP (other, human, UniProt Q14980 1-400, looked up) MTLHATRGAALLSWVNSLHVADPVEAVLQLQDCSIFIKIIDRIHGTEEGQQILKQPVSERLDFVCSFLQKNRKHPSSPECLVSAQKVLEGSELELAKMTMLLLYHSTMSSKSPRDWEQFEYKIQAELAVILKFVLDHEDGLNLNEDLENFLQKAPVPSTCSSTFPEELSPPSHQAKREIRFLELQKVASSSSGNNFLSGSPASPMGDILQTPQFQMRRLKKQLADERSNRDELELELAENRKLLTEKDAQIAMMQQRIDRLALLNEKQAASPLEPKELEELRDKNESLTMRLHETLKQCQDLKTEKSQMDRKINQLSEENGDLSFKLREFASHLQQLQDALNELTEEHSKATQEWLEKQAQLEKELSAALQDKKCLEEKNEILQGKLSQLEEHLSQLQDNSALLSLPGYRPTTRSSARRSQAGVSSGAPPGRNSFYMGTCQDEPEQLDDWNRIAELQQRNRVCPPHLKTCYPLESRPSLSLGTITDEEMKTGDPQETLRRASMQPIQIAEGTGITTRQQRKRVSLEPHQGPGTPESKKATSCFPRPMTPRDRHEGRKQSTTEAQKKAAPASTKQADRRQSMAFSILNTPKKLGNSLLRRGASKKALSKASPNTRSGTRRSPRIA | 2 | – |
| 2.8 ± 0.2 s | NuMA-tail II-GFP (domain or fragment, human, UniProt Q14980 1868-2091, looked up) SALLSLPGYRPTTRSSARRSQAGVSSGAPPGRNSFYMGTCQDEPEQLDDWNRIAELQQRNRVCPPHLKTCYPLESRPSLSLGTITDEEMKTGDPQETLRRASMQPIQIAEGTGITTRQQRKRVSLEPHQGPGTPESKKATSCFPRPMTPRDRHEGRKQSTTEAQKKAAPASTKQADRRQSMAFSILNTPKKLGNSLLRRGASKKALSKASPNTRSGTRRSPRIA | – | – |

Continued, binder first:

| Binder | binding lifetime (microtubules) | stoichiometry N (SEC) | stoichiometry N (light scattering) |
| --- | --- | --- | --- |
| NuMA NTD (domain or fragment, human, UniProt Q14980 1-400, looked up) MTLHATRGAALLSWVNSLHVADPVEAVLQLQDCSIFIKIIDRIHGTEEGQQILKQPVSERLDFVCSFLQKNRKHPSSPECLVSAQKVLEGSELELAKMTMLLLYHSTMSSKSPRDWEQFEYKIQAELAVILKFVLDHEDGLNLNEDLENFLQKAPVPSTCSSTFPEELSPPSHQAKREIRFLELQKVASSSSGNNFLSGSPASPMGDILQTPQFQMRRLKKQLADERSNRDELELELAENRKLLTEKDAQIAMMQQRIDRLALLNEKQAASPLEPKELEELRDKNESLTMRLHETLKQCQDLKTEKSQMDRKINQLSEENGDLSFKLREFASHLQQLQDALNELTEEHSKATQEWLEKQAQLEKELSAALQDKKCLEEKNEILQGKLSQLEEHLSQLQDN | – | – | 2 |
| EB1-GFP (natural protein, human, UniProt Q15691 1-268, looked up) MAVNVYSTSVTSDNLSRHDMLAWINESLQLNLTKIEQLCSGAAYCQFMDMLFPGSIALKKVKFQAKLEHEYIQNFKILQAGFKRMGVDKIIPVDKLVKGKFQDNFEFVQWFKKFFDANYDGKDYDPVAARQGQETAVAPSLVAPALNKPKKPLTSSSAAPQRPISTQRTAAAPKAGPGVVRKNPGVGNGDDEAAELMQQVNVLKLTVEDLEKERDFYFGKLRNIELICQENEGENDPVLQRIVDILYATDEGFVIPDEGGPQEEQEEY | 1.2 ± 0.2 s | – | – |
